Biological target: T1, WT talin1 R12-R13-DD (murine, UniProt P26039 2138-2541)
T1 construct: talin1, murine, rod domains R12 and R13 and the dimerization domain (DD), residues 2138-2541; also called WT-R12-R13-DD; R12-R13-DD WT
Assay: SEC; 100 uM talin and 100 uM Vd1 (1:1 ratio), Superdex 200 Increase 10/300 GL, room temperature (25°C)
Details: both partners purified

T1 sequence (P26039 2138-2541): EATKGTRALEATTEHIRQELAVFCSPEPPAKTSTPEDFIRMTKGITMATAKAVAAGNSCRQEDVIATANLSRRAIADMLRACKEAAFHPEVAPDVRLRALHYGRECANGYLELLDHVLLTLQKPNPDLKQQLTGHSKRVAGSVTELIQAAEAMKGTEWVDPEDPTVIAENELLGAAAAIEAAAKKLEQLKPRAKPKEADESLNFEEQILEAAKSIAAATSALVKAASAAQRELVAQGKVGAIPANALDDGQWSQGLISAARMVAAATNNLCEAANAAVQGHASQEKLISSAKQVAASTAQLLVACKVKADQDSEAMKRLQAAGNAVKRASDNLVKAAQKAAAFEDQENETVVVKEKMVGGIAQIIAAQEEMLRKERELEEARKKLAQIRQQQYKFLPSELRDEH

binding result: binds
B1: talin-binding domain 1 of vinculin (Vd1) (domain or fragment, chicken, UniProt P12003 1-258, looked up)
chain: MPVFHTRTIESILEPVAQQISHLVIMHEEGEVDGKAIPDLTAPVSAVQAAVSNLVRVGKETVQTTEDQILKRDMPPAFIKVENACTKLVRAAQMLQADPYSVPARDYLIDGSRGILSGTSDLLLTFDEAEVRKIIRVCKGILEYLTVAEVVETMEDLVTYTKNLGPGMTKMAKMIDERQQELTHQEHRVMLVNSMNTVKELLPVLISAMKIFVTTKNTKSQGIEEALKNRNFTVEKMSAEINEIIRVLQLTSWDEDAW
notes: vinculin, chicken, domain 1 (Vd1), residues 1-258; expressed from a pET-15b plasmid; also called vinculin Vd1 domain
